Assay: Animal Experiment (1): radioactivity distribution of 111In-labeled NGA in organs after tail vein administration
Experimental: Five mice per group were slaughtered 5 minutes or 1 hour after the administration, the blood and organs of interest were recovered, and after measuring the organ weight, the radioactivity was measured with an auto-well gamma counter.

[1] = mouse, in vivo, iv, 11.1 kBq/8 ug protein/100 uL/mouse, 5 min
[2] = mouse, in vivo, iv, 11.1 kBq/8 ug protein/100 uL/mouse, 1 h
[3] = 5 minutes after the administration, tail vein, male ddY mouse
[4] = 1 hour after the administration, tail vein, male ddY mouse

^111In-DO3ABn-Phe-Lys-NGA
radioactivity (% ID) Blood [1]: 0.1 ± 0.0 % ID
radioactivity (% ID) Kidney [1]: 0.2 ± 0.0 % ID
radioactivity (% ID) Liver [1]: 91.1 ± 6.2 % ID
radioactivity (% ID) Lung [1]: 0.1 ± 0.0 % ID
radioactivity (% ID) Small intestine [1]: 0.1 ± 0.1 % ID
radioactivity (% ID) Spleen [1]: 0.2 ± 0.0 % ID
radioactivity (% ID) Stomach [1]: 0.1 ± 0.1 % ID
radioactivity (% ID) Kidney [2]: 0.9 ± 0.3 % ID
radioactivity (% ID) Liver [2]: 49.5 ± 5.6 % ID
radioactivity (% ID) Lung [2]: 0.1 ± 0.1 % ID
radioactivity (% ID) Small intestine [2]: 27.8 ± 6.5 % ID
radioactivity (% ID) Spleen [2]: 0.2 ± 0.1 % ID
radioactivity (% ID) Stomach [2]: 1.1 ± 0.7 % ID

^111In-DO3ABn-Gly-Lys-NGA
radioactivity (% ID) Blood [3]: 0.1 ± 0.2 % ID
radioactivity (% ID) Heart [3]: 0.0 ± 0.0 % ID
radioactivity (% ID) Kidney [3]: 0.1 ± 0.0 % ID
radioactivity (% ID) Liver [3]: 89.5 ± 3.4 % ID
radioactivity (% ID) Lung [3]: 0.1 ± 0.1 % ID
radioactivity (% ID) Pancreas [3]: 0.0 ± 0.0 % ID
radioactivity (% ID) Small intestine [3]: 0.1 ± 0.1 % ID
radioactivity (% ID) Spleen [3]: 0.2 ± 0.0 % ID
radioactivity (% ID) Stomach [3]: 0.1 ± 0.1 % ID
radioactivity (% ID) Blood [4]: 0.0 ± 0.0 % ID
radioactivity (% ID) Heart [4]: 0.0 ± 0.0 % ID
radioactivity (% ID) Kidney [4]: 0.2 ± 0.0 % ID
radioactivity (% ID) Liver [4]: 89.1 ± 1.2 % ID
radioactivity (% ID) Lung [4]: 0.0 ± 0.0 % ID
radioactivity (% ID) Pancreas [4]: 0.0 ± 0.0 % ID
radioactivity (% ID) Small intestine [4]: 2.5 ± 0.7 % ID
radioactivity (% ID) Spleen [4]: 0.2 ± 0.0 % ID
radioactivity (% ID) Stomach [4]: 0.1 ± 0.1 % ID

Source: patent US11701440B2, “Modified antibody and radioactive metal-labelled antibody” (NIHON MEDI-PHYSICS CO., LTD., priority 2018, dated 2023)
